Assay results as given in paper PMC7904085.

Target: Protein A/G
Assay: single-molecule TIRF microscopy, saturation curve

## Mouse monoclonal anti-V5 tag antibody [SV5-Pk1]
  Kd: 4.6 nM
